Measurements from ChEMBL document CHEMBL2074015, “Effect of ionization on the variable uptake of valacyclovir via the human intestinal peptide transporter (hPepT1) in CHO cells” (Biopharm Drug Dispos, 2000).

Assays:
Details in all cases: CHO
[1] = substrate: CC(C)[C@H](N)C(=O)OCCOCn1cnc2c(=O)nc(N)[nH]c21
Description: TP_TRANSPORTER: uptake (pH 6.8) in PEPT1-expressing CHO cells

[2] = substrate: CC(C)[C@H](N)C(=O)OCCOCn1cnc2c(=O)nc(N)[nH]c21; remark: listed apart in the source
Description: TP_TRANSPORTER: uptake (pH 5.5) in PEPT1-expressing CHO cells

[3] = substrate: CC(C)[C@H](N)C(=O)OCCOCn1cnc2c(=O)nc(N)[nH]c21; remark: listed apart in the source
Description: TP_TRANSPORTER: uptake (pH 6.2) in PEPT1-expressing CHO cells

[4] = substrate: CC(C)[C@H](N)C(=O)OCCOCn1cnc2c(=O)nc(N)[nH]c21; remark: listed apart in the source
Description: TP_TRANSPORTER: uptake (pH 7.5) in PEPT1-expressing CHO cells

[5] = substrate: CC(C)[C@H](N)C(=O)OCCOCn1cnc2c(=O)nc(N)[nH]c21; remark: listed apart in the source
Description: TP_TRANSPORTER: uptake (pH 7.9) in PEPT1-expressing CHO cells

B1: Solute carrier family 15 member 1 (Homo sapiens), P46059 (protein)
chain: MGMSKSHSFFGYPLSIFFIVVNEFCERFSYYGMRAILILYFTNFISWDDNLSTAIYHTFVALCYLTPILGALIADSWLGKFKTIVSLSIVYTIGQAVTSVSSINDLTDHNHDGTPDSLPVHVVLSLIGLALIALGTGGIKPCVSAFGGDQFEEGQEKQRNRFFSIFYLAINAGSLLSTIITPMLRVQQCGIHSKQACYPLAFGVPAALMAVALIVFVLGSGMYKKFKPQGNIMGKVAKCIGFAIKNRFRHRSKAFPKREHWLDWAKEKYDERLISQIKMVTRVMFLYIPLPMFWALFDQQGSRWTLQATTMSGKIGALEIQPDQMQTVNAILIVIMVPIFDAVLYPLIAKCGFNFTSLKKMAVGMVLASMAFVVAAIVQVEIDKTLPVFPKGNEVQIKVLNIGNNTMNISLPGEMVTLGPMSQTNAFMTFDVNKLTRINISSPGSPVTAVTDDFKQGQRHTLLVWAPNHYQVVKDGLNQKPEKGENGIRFVNTFNELITITMSGKVYANISSYNASTYQFFPSGIKGFTISSTEIPPQCQPNFNTFYLEFGSAYTYIVQRKNDSCPEVKVFEDISANTVNMALQIPQYFLLTCGEVVFSVTGLEFSYSQAPSNMKSVLQAGWLLTVAVGNIIVLIVAGAGQFSKQWAEYILFAALLLVVCVIFAIMARFYTYINPAEIEAQFDEDEKKNRLEKSNPYFMSGANSQKQM
Km [1]: 5.4 mM | Km [2]: 7.4 mM | Km [3]: 6.6 mM | Km [4]: 2700 µM | Km [5]: 2200 µM
